{
  "source": "patent US6534300",
  "key": {"porcine uteroferrin": {"biological_target": "porcine uteroferrin (UniProt P09889)", "sequence (P09889 22-340)": "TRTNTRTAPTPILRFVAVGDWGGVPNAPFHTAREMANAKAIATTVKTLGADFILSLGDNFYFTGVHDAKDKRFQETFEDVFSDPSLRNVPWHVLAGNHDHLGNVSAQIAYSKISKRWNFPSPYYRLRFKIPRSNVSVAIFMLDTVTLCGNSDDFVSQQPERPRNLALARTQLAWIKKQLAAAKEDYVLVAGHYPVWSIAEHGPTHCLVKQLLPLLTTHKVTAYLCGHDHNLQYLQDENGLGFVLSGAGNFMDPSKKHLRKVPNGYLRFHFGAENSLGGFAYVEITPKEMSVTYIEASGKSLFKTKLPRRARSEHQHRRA"}},
  "data": [
    {"substance": "bovine UDP-N-acetylglucosamine: lysosomal enzyme N-Acetylglucosamine-1-phosphotransferase", "values": [
      {"measurement": "Km as acceptor for transfer of GlcNAc-1-P", "setting": "porcine uteroferrin", "result": "Kms below 20 µM"},
      {"measurement": "Km as acceptor for transfer of GlcNAc-1-P", "setting": "RNAse B", "result": "the Km was not reached at the solubility limit of the protein (at 600 µM)"},
      {"measurement": "Km as acceptor for transfer of GlcNAc-1-P", "setting": "cathepsin D", "result": "Kms below 20 µM"}
    ]}
  ]
}
